# Measurements reported in publication PMC6123398.
# Tests used:
# [1] = target: human FcγRIIIa-Phe158, soluble ectodomain (human) (UniProt P08637); test: SPR; FcγRIIIa ectodomains immobilised on Series S CM5 chips by amine coupling (Phe158 560 RU, Val158 260 RU); Biacore T200; antibody injected (Rituxan 21,870-30 nM, recombinant mAb 810-3.333 nM, threefold dilutions); blank surface and buffer subtracted; 1:1 Langmuir binding model
# [2] = target: human FcγRIIIa-Val158, soluble ectodomain (human); test: as above
# Chain of UniProt P08637 (P08637 17-208): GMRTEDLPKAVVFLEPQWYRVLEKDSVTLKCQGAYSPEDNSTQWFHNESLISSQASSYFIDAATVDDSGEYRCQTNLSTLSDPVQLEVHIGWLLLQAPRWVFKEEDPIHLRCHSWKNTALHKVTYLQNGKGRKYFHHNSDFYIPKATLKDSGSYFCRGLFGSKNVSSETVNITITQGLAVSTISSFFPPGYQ
substance,measurement,setting,value
Rituxan (antibody),Kd,[1],6.8 µM
same,koff,[1],0.17 s⁻¹
same,kon,[1],25000 M⁻¹ s⁻¹
same,Kd,[2],0.94 µM
same,koff,[2],0.043 s⁻¹
same,kon,[2],46000 M⁻¹ s⁻¹
